According to patent publication US20180273635A1 (Zymeworks, published 2018):
Changes are numbered by the printed parent chain. Numbers in names are those of the source.

B1: variant 12475 (antibody, human IgG1, kappa)
heavy: EVQLVESGGGLVQPGGSLRLSCAASGFRFTDYTMDWVRQAPGKGLEWVADVNPNSGGSIYNQRFKGRFTLSVDRSKNTLYLQMNSLRAEDTAVYYCARNLGPSFYFDYWGQGTLVTVSSASTKGPSVFPLAPSSKSTSGGTAALGCLVKDYFPEPVTVSWNSGALTSGVHTFPAVLQSSGLYSLSSVVTVPSSSLGTQTYICNVNHKPSNTKVDKKVEPKSCDKTHTCPPCPAPELLGGPSVFLFPPKPKDTLMISRTPEVTCVVVDVSHEDPEVKFNWYVDGVEVHNAKTKPREEQYNSTYRVVSVLTVLHQDWLNGKEYKCKVSNKALPAPIEKTISKAKGQPREPQVYVYPPSRDELTKNQVSLTCLVKGFYPSDIAVEWESNGQPENNYKTTPPVLDSDGSFALVSKLTVDKSRWQQGNVFSCSVMHEALHNHYTQKSLSLSPG
light: not shown
chain: not shown
notes: one-armed (OA) pertuzumab variant, HC T28R (Kabat); also called v12475
B2: variant 12545 (antibody, human IgG1, kappa)
heavy: B1 heavy with R28T, Q62R
light: not shown
chain: not shown
notes: OA pertuzumab variant, HC Q61R, LC Y94K (Kabat); also called v12545
B3: variant 12476 (antibody, human IgG1, kappa)
heavy: B1 heavy with R28K
light: not shown
chain: not shown
notes: OA pertuzumab variant, HC T28K (Kabat); also called v12476
B4: variant 14067 (antibody, human IgG1, kappa)
heavy: B1 heavy with R28T, K76Y
light: not shown
chain: not shown
notes: OA pertuzumab variant, HC K75Y (Kabat); also called v14067
B5: variant 12495 (antibody, human IgG1, kappa)
heavy: B1 heavy with R28T, I59F
light: not shown
chain: not shown
notes: OA pertuzumab variant, HC I58F (Kabat); also called v12495
B6: variant 12492 (antibody, human IgG1, kappa)
heavy: B1 heavy with R28T, G57W
light: not shown
chain: not shown
notes: OA pertuzumab variant, HC G56W (Kabat); also called v12492
B7: variant 12518 (antibody, human IgG1, kappa)
heavy: B1 heavy with R28T, T30R, G57R
light: not shown
chain: not shown
notes: also called v12518
B8: variant 12496 (antibody, human IgG1, kappa)
heavy: B1 heavy with R28T, I59Y
light: not shown
chain: not shown
notes: OA pertuzumab variant, HC I58Y (Kabat); also called v12496
B9: variant 14065 (antibody, human IgG1, kappa)
heavy: B1 heavy with R28T, K76I
light: not shown
chain: not shown
notes: OA pertuzumab variant, HC K75I (Kabat); also called v14065
B10: variant 14066 (antibody, human IgG1, kappa)
heavy: B1 heavy with R28T, K76V
light: not shown
chain: not shown
notes: OA pertuzumab variant, HC K75V (Kabat); also called v14066
B11: variant 12486 (antibody, human IgG1, kappa)
heavy: B1 heavy with R28T, S55H
light: not shown
chain: not shown
notes: OA pertuzumab variant, HC S54H (Kabat); also called v12486
B12: variant 12515 (antibody, human IgG1, kappa)
heavy: B1 heavy with R28T
light: DIQMTQSPSSLSASVGDRVTITCKASQDVSIGVAWYQQKPGKAPKLLIYSASYRYWGVPSRFSGSGSGTDFTLTISSLQPEDFATYYCQQYYIYPYTFGQGTKVEIKRTVAAPSVFIFPPSDEQLKSGTASVVCLLNNFYPREAKVQWKVDNALQSGNSQESVTEQDSKDSTYSLSSTLTLSKADYEKHKVYACEVTHQGLSSPVTKSFNRGEC
chain: not shown
notes: OA pertuzumab variant, LC T56W (Kabat); also called v12515
B13: variant 12542 (antibody, human IgG1, kappa)
heavy: B1 heavy with R28T, F64G
light: not shown
chain: not shown
notes: OA pertuzumab variant, HC F63G (Kabat); also called v12542
B14: variant 12498 (antibody, human IgG1, kappa)
heavy: B1 heavy with R28T, Q62K
light: not shown
chain: not shown
notes: OA pertuzumab variant, HC Q61K (Kabat); also called v12498
B15: variant 12535 (antibody, human IgG1, kappa)
heavy: B1 heavy with R28T
light: B12 light with W56T, Y91N
chain: not shown
notes: OA pertuzumab variant, LC Y91N (Kabat); also called v12535
B16: variant 12501 (antibody, human IgG1, kappa)
heavy: B1 heavy with R28T, S75E
light: not shown
chain: not shown
notes: OA pertuzumab variant, HC S74E (Kabat); also called v12501
B17: variant 12487 (antibody, human IgG1, kappa)
heavy: B1 heavy with R28T, G57K
light: not shown
chain: not shown
notes: OA pertuzumab variant, HC G56K (Kabat); also called v12487
B18: variant 12481 (antibody, human IgG1, kappa)
heavy: B1 heavy with R28T, T30K
light: not shown
chain: not shown
notes: OA pertuzumab variant, HC T30K (Kabat); also called v12481
B19: variant 12526 (antibody, human IgG1, kappa)
heavy: B1 heavy with R28T, G57M, I59Y
light: not shown
chain: not shown
notes: also called v12526
B20: variant 12488 (antibody, human IgG1, kappa)
heavy: B1 heavy with R28T, G57R
light: not shown
chain: not shown
notes: OA pertuzumab variant, HC G56R (Kabat); also called v12488
B21: variant 12546 (antibody, human IgG1, kappa)
heavy: B1 heavy with R28T, Q62R
light: B12 light with D1N, W56T
chain: not shown
notes: OA pertuzumab variant, HC Q61R, LC D1N (Kabat); also called v12546
B22: variant 12500 (antibody, human IgG1, kappa)
heavy: B1 heavy with R28T, S75Y
light: not shown
chain: not shown
notes: OA pertuzumab variant, HC S74Y (Kabat); also called v12500
B23: variant 12499 (antibody, human IgG1, kappa)
heavy: B1 heavy with R28T, S75D
light: not shown
chain: not shown
notes: OA pertuzumab variant, HC S74D (Kabat); also called v12499
B24: variant 12543 (antibody, human IgG1, kappa)
heavy: B1 heavy with R28T, F64L
light: not shown
chain: not shown
notes: OA pertuzumab variant, HC F63L (Kabat); also called v12543
B25: variant 12539 (antibody, human IgG1, kappa)
heavy: B1 heavy with R28T
light: B12 light with W56T, Y91T
chain: not shown
notes: OA pertuzumab variant, LC Y91T (Kabat); also called v12539
B26: variant 12477 (antibody, human IgG1, kappa)
heavy: B1 heavy with R28T, T30R
light: not shown
chain: not shown
notes: OA pertuzumab variant, HC T30R (Kabat); also called v12477
B27: variant 14064 (antibody, human IgG1, kappa)
heavy: B1 heavy with R28T, K76A
light: not shown
chain: not shown
notes: OA pertuzumab variant, HC K75A (Kabat); also called v14064
B28: variant 12541 (antibody, human IgG1, kappa)
heavy: B1 heavy with R28T
light: not shown
chain: not shown
notes: OA pertuzumab variant, LC Y96L (Kabat); also called v12541
B29: variant 12537 (antibody, human IgG1, kappa)
heavy: B1 heavy with R28T
light: not shown
chain: not shown
notes: OA pertuzumab variant, LC Y96M (Kabat); also called v12537
B30: Variant 14030 (antibody, human IgG1, kappa)
heavy: B1 heavy with R28T, S75W
light: not shown
chain: not shown
notes: OA (one-armed) format; clones 7840, 7919, 4372; also called v14030
B31: Variant 14031 (antibody, human IgG1, kappa)
heavy: B1 heavy with R28T, T30Q, S75W
light: not shown
chain: not shown
notes: OA (one-armed) format; clones 8778, 1811, 4372; also called v14031
B32: Variant 14033 (antibody, human IgG1, kappa)
heavy: B1 heavy with R28T, S75W, K76E
light: not shown
chain: not shown
notes: OA (one-armed) format; clones 8779, 1811, 4372; also called v14033
B33: Variant 14028 (antibody, human IgG1, kappa)
heavy: B1 heavy with R28T, T30Y, K76W
light: not shown
chain: not shown
notes: OA (one-armed) format; clones 8776, 1811, 4372; also called v14028
B34: Variant 14027 (antibody, human IgG1, kappa)
heavy: B1 heavy with R28T, K76W
light: not shown
chain: not shown
notes: OA (one-armed) format; clones 7844, 7917, 4372; also called v14027
B35: Variant 14026 (antibody, human IgG1, kappa)
heavy: B1 heavy with R28T, K76W, S103W
light: not shown
chain: not shown
notes: OA (one-armed) format; clones 8774, 1811, 4372; also called v14026
B36: Variant 14029 (antibody, human IgG1, kappa)
heavy: B1 heavy with R28T, G57Y, K76W
light: not shown
chain: not shown
notes: OA (one-armed) format; clones 8777, 1811, 4372; also called v14029
B37: Variant 14052 (antibody, human IgG1, kappa)
heavy: B1 heavy with R28T, S103W
light: not shown
chain: not shown
notes: OA (one-armed) format; clones 7852, 8781, 4372; also called v14052

biological target: T1, Recombinant human HER2 (human, UniProt P04626 23-652); assay: SPR, pre-SEC; ratio to WT v10013;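 also: SPR on Biacore T200 at 25 °C, constructs captured via anti-human Fc on CM5 chip, HER2 ECD as analyte, 1:1 Langmuir global fit, after protein A purification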
T1 construct: extracellular domain; analyte of the SPR assays; also called HER2 ECD; ECD2 of HER2
Procedure: (§1) The affinity towards HER2 ECD of the samples was measured by SPR on a Biacore T200 as follows. Between 2000 and 4000 RU of anti-human Fc injected at concentration between 5 and 10 μg/ml was immobilized on a CM5 chip using standard amine coupling. Antigen-binding constructs were captured on the anti-human Fc (injected at concentration at 0.51 microg/mL in PBST, 1 min at 10 microl/min) at response levels ranging from 120-270 RU. […] HER2 dilutions were analyzed in duplicates. Sensograms were fit globally to a 1: 1 Langmuir binding model, using the software provided with the Biacore T200. All experiments were conducted at 25° C.
(§2) The affinity of antigen-binding constructs in OA format was determined by SPR following protein A purification. […] Antigen-binding constructs in FSA format were purified by protein A affinity and SEC prior to assessment of affinity by SPR.

Row | Binder | Ka, mut/Ka, WT
1 | B1 | 0.4
2 | B2 | 0.2
3 | B3 | 0.3
4 | B4 | 18
5 | B5 | 0.4
6 | B6 | 1.1
7 | B7 | 0.9
8 | B8 | 0.3
9 | B9 | 1.5
10 | B10 | 1.6
11 | B11 | 0.2
12 | B12 | 0.8
13 | B13 | 0.5
14 | B14 | 1
15 | B15 | 0.8
16 | B16 | 0.2
17 | B17 | 0.4
18 | B18 | 0.1
19 | B19 | 0.2
20 | B20 | 0.6
21 | B21 | 1.3
22 | B22 | 1
23 | B23 | 0.3
24 | B24 | 1
25 | B25 | 0.3
26 | B26 | 0.9
27 | B27 | 1.7
28 | B28 | 0.3
29 | B29 | 0.3

biological target: T2, Recombinant human HER2 (human, UniProt P04626 23-652); assay: SPR, 25 C; Ka ratio to WT v10013;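 also: constructs captured via anti-human Fc on CM5 chip, HER2 ECD as analyte in duplicate dilutions, sensorgrams globally fit to 1:1 Langmuir model on Biacore T200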
T2 construct: extracellular domain; Analyte of the SPR assays; also called HER2 ECD; ECD2 of HER2

Row | Binder | Ka, mut/Ka, WT
30 | B30 | 13 fold
31 | B31 | 8 fold
32 | B32 | 10 fold
33 | B33 | ~67 fold
34 | B34 | ~164 fold
35 | B35 | ~57 fold
36 | B36 | ~81 fold

biological target: T2, Recombinant human HER2; assay: calculated from the SPR Ka ratio to WT v10013;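 also: SPR at 25 °C with constructs captured on an anti-human Fc chip and HER2 extracellular domain as analyte, kinetics fitted to a 1:1 Langmuir model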

Row | Binder | ΔΔG
37 | B30 | -1.5 kcal/mol
38 | B31 | -1.2 kcal/mol
39 | B32 | -1.4 kcal/mol
40 | B33 | -2.5 kcal/mol
41 | B34 | -3 kcal/mol
42 | B35 | -2.4 kcal/mol
43 | B36 | -2.6 kcal/mol

biological target: T1, Recombinant human HER2; assay: SPR, variant captured on anti-human Fc, HER2 flowed, 25 C, pre-SEC;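 also: HER2 extracellular domain binding on Biacore T200, CM5 chip with amine-coupled anti-human Fc, duplicate antigen dilutions, global 1:1 Langmuir fit, measured after protein A purification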
Procedure: as §1, §2

Row | Binder | Kd
44 | B1 | 45 nM
45 | B2 | 81 nM
46 | B3 | 61 nM
47 | B4 | 0.94 nM
48 | B5 | 50 nM
49 | B6 | 17 nM
50 | B7 | 21 nM
51 | B8 | 66 nM
52 | B9 | 11 nM
53 | B10 | 10 nM
54 | B11 | 92 nM
55 | B12 | 26 nM
56 | B13 | 40 nM
57 | B14 | 19 nM
58 | B15 | 23 nM
59 | B16 | 85 nM
60 | B17 | 44 nM
61 | B18 | 310 nM
62 | B19 | 130 nM
63 | B20 | 30 nM
64 | B21 | 15 nM
65 | B22 | 20 nM
66 | B23 | 69 nM
67 | B24 | 20 nM
68 | B25 | 75 nM
69 | B26 | 23 nM
70 | B27 | 9.7 nM
71 | B28 | 63 nM
72 | B29 | 57 nM

biological target: T2, Recombinant human HER2; assay: SPR, Biacore T200, 25 C; variant captured on anti-human Fc, HER2 flowed;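 also: HER2 extracellular domain analyte run as duplicate dilutions over amine-coupled anti-Fc on a CM5 chip, rates from global sensorgram fitting with a 1:1 Langmuir model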
Procedure: as §1

Row | Binder | Kd | koff | kon
73 | B37 | 55 nM | 0.0053 s⁻¹ | 97000 M⁻¹ s⁻¹
74 | B30 | 1.3 nM | 8e-05 s⁻¹ | 63000 M⁻¹ s⁻¹
75 | B31 | 2 nM | 9.9e-05 s⁻¹ | 49000 M⁻¹ s⁻¹
76 | B32 | 1.7 nM | 9.9e-05 s⁻¹ | 59000 M⁻¹ s⁻¹
77 | B33 | ~0.25 nM | ~1.7e-05 s⁻¹ | 68000 M⁻¹ s⁻¹
78 | B34 | ~0.1 nM | ~9e-06 s⁻¹ | 88000 M⁻¹ s⁻¹
79 | B35 | ~0.29 nM | ~2.7e-05 s⁻¹ | 91000 M⁻¹ s⁻¹
80 | B36 | ~0.21 nM | ~2e-05 s⁻¹ | 95000 M⁻¹ s⁻¹
